Results as given in PMC7665024, “Anti-apoptotic BCL-2 regulation by changes in dynamics of its long unstructured loop” (Communications Biology, 2020).

Legend:
[1] = system: BCL-2 EEE (T69E/S70E/S87E; EEE-PB); assay: FRET association with Pacific Blue-labeled BCL-2 EEE; conditions: Fig. 1d
[2] = system: BAX-induced MOMP, isolated mitochondria; assay: In vitro cytochrome c release assay, isolated mitochondria (BCL-2 mutants); format: biochemical, mouse; conditions: Bax+BimBH3 = 100, mean of n = 6
From the text: To verify this implication, we performed in vitro cytochrome c release assay using isolated mitochondria. […] Lane 3 (Fig. 2a) is a positive control for the cytochrome c release assays. […] (More experimental results in support of the observed BCL-2 activity are given in Supplementary Fig. 3.)
Fig. 2 In vitro assays for evaluating BCL-2 activity. a Cytochrome c release assay with various BCL-2 mutants at varying concentrations. All of the release amounts are normalized to the result caused by the BimBH3-induced BAX activation (lane 3). […] GUVs provide a MOM-like environment devoid of endogenous mitochondrial proteins.
A Dounce homogenizer was used with 20 strokes to homogenize mouse liver tissue (0.2 mg). The mitochondria fraction was separated using centrifugation according to the Mitochondria Isolation Kit (Thermo Scientific). Mitochondria Assay Buffer A (MAB A) (200 mM mannitol, 68 mM sucrose, 10 mM HEPES, 110 mM KCl, 1 mM EDTA, […], 0.1% BSA, protease inhibitor) was used to wash the mitochondria fraction, followed by centrifugation at 12,000 × g. The pellet was collected and resuspended using enough MAB B (i.e., MBA A without 0.1% BSA) and then quantified by bradford assay (Bio-Rad) to yield a final protein content of the mitochondrial fraction ~3 mg/mL. The final mitochondria fraction was placed on ice for further downstream processing or stored at −80 °C with additional 300 mM trehalose for future use[38]. […] The mixture was then incubated with BAX (0.1 μM) and 10 μL of the mitochondrial fraction ([…]) for 0.5 h at 37 °C. Final volume was adjusted to 30 μL. Following centrifugation at 12,000×g for 10 min, the supernatant was subjected to subsequent immunoblotting (IB). Quantification of IB was done using ImageJ software (version 1.49, NIH). The fraction of cytochrome c released (%) is calculated by (I–I0)/(Imax–I0)×100%, where Imax and I0 are the analyzed intensities of cytochrome c with and without activated BAX, respectively.
Samples were resolved by SDS–PAGE (15%) and electroblotted onto a 0.45 μm PVDF membrane (GE Healthcare). Primary antibodies used in this study included rabbit anti-BAX N20 (Santa Cruz Biotechnology), mouse anti-BCL-2(C2) (Santa Cruz Biotechnology) and mouse anti-cytochrome c antibodies (clone 7H8.2C12, Millipore). Detection was achieved using sheep anti-mouse IgG HRP (GE Healthcare) and donkey anti-rabbit IgG HRP (GE Healthcare) secondary antibodies. Proteins were visualized by 4CN Plus Chromogenic Substrate (PerkinElmer).

trypsin = assay: Limited proteolysis by trypsin; conditions: BCL-2 20 μM, trypsin 0.04-9.44 μM, 1 h, room temperature, SDS-PAGE
Protocol: Fig. 3 Structural differences between WT and EEE. a An illustration of mutation sites prepared for spin-labeling ESR studies. b Distance distributions of various double-spin-labeled BCL-2 (WT or EEE) mutants are determined from the experimental DEER data. […] As highlighted, the displacements of α1 and α2 account for the major differences. d An illustration highlighting the positions of α2–α7 and the binding groove. Structures of WT and EEE are colored as in c. Helices α4–α7 change little between the WT and EEE. The displacement of α2 is critical to the change in the local environment of the binding groove. e Limited proteolysis of BCL-2 (20 μM) analyzed on SDS–PAGE. Trypsin concentrations were 0.04, 0.11, 0.34, 1.03, 3.11, 9.44 μM. Incubation time was 1 h at room temperature. It confirms that tertiary conformations of WT versus EEE are indeed different.
BCL-2 conformational change was assessed by limited proteolysis using trypsin (MERCK). In brief, 5 µg BCL-2 (WT or EEE) was digested at enzyme/substrate ratios ranging from 1:2 to 1:461 for 1 h at room temperature. Proteolysis was quenched by adding 1 mM PMSF, and then samples were confirmed by SDS–PAGE with Coomassie blue staining.

BAX [3] = assay: FRAP-GUV pore-forming activity of BAX, 10-kDa F-dextran; format: biochemical, mouse; design: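 unitless ratio D/D0 relative to diffusion coefficient after Triton X-100 disruption of GUVs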; conditions: 10 kDa F-dextran
Protocol: (§1) Briefly, GUVs were incubated with the proteins of interest over a period of time (Fig. 2c), followed by photobleaching within individual GUVs. A series of fluorescent images were collected over time after the photobleaching and then analyzed to yield the diffusion coefficients of Fluor molecules (including FITC-labeled 70-kDa, and Alexa-647-labeled 10-kDa probes) using the theoretical approach detailed in the “Methods” section. As Fluor molecules are homogeneously dispersed in the solution (outside and inside of GUVs) before the incubation with BAX and activators, it is reasonable to expect that the larger the induced pore area on the surface of a GUV, the greater the diffusion coefficient. Thus, the diffusion coefficient is directly related to the pore-forming activity of activated BAX. As the pore-forming activity is proportional to the concentration of BAX[18], we fixed the total amount of added BAX in all of the measurements below (see the “Methods” section).
(§2) Full-length BAX and variants were prepared as previously described[18],[22],[35]. Mouse BAX was cloned into pTYB1 vector (New England Biolabs, Inc.), resulting pTYB1-BAX construct. The pTYB1-BAX construct encoding a fusion protein of BAX with chitin-binding peptide was separated by a self-cleavable intein tag to obtain a full-length BAX. Wild-type BAX has two native cysteine residues at 62 and 126. Cysteine-free construct (C62S/C126S) was used to prepare single-cysteine BAX variants for conjugating fluorescence probes (e.g., BAX136C in Fig. 1d). Point mutations of recombinant BAX were generated using a QuikChange mutagenesis kit. Proteins were expressed in E. coli (ER2566) strain (New England Biolabs, Inc.) and purified without detergent. Bacterial cultures were grown at 37 °C in LB medium containing 0.1 g/L ampicillin to reach an OD600 of 1.0. BAX expression was induced by addition of 0.3 mM IPTG at 30 °C for 6−8 h. The cells were harvested by centrifugation and resuspended in ice-cold lysis buffer (20 mM Tris–HCl, pH 7.0, 500 mM NaCl and 1 mM PMSF). The resuspended pellet was sonicated on ice for 30 min, followed by centrifugation at 12,800 × g for 50 min. […] The resins were incubated in a pre-equilibrated buffer (20 mM sodium phosphate, pH 8.0, 100 mM NaCl, 60 mM dithiothreitol (DTT)) for 48 h. Proteins were eluted from column and further purified by a SEC using a HiLoad 16/60 Superdex 75 column (GE Healthcare) pre-equilibrated in PB buffer (20 mM sodium phosphate, pH 7.4, 100 mM NaCl). Purified proteins were confirmed by SDS–PAGE with Coomassie blue staining. Protein concentration was determined using absorption spectroscopy at 280 nm.
(§3) All lipids used were purchased from Avanti Polar Lipids. […] Texas Red 1,2-dihexadecanoyl-sn-glycero-3-phosphoethanolamine (TR-DPPE) (Invitrogen) of 0.05% was added to the lipid mixture for virtualization of GUV[18],[26],[27]. GUVs were prepared with the gel-assisted swelling on a polyvinyl alcohol (PVA) gel[39]. A 5% (w/w) solution of PVA (MW 145,000) was prepared by stirring PVA in ddH2O while heating at 90 °C. PVA solution was spread on a microscope coverslip (18 × 18 mm, Matsunami, Japan) and then dried at 50 °C. Lipid mixture (1 mg/mL) dissolved in chloroform were spread on the dry PVA film and placed under vacuum for 30 min to evaporate the solvent. Lipids were rehydrated for 1 h in PB buffer. The resulting GUVs were transferred to an Eppendorf tube using blunt tips.
(§4) FRAP measurements were performed as described previously. […] All reactions were at room temperature and the final volume was 200 μL.

BAX [4] = assay: FRAP-GUV pore-forming activity of BAX, 70-kDa F-dextran; format: biochemical, mouse; design: FRAP pore-forming activity / FRAP pore-forming activity, average / p (FRAP-70k-p), Average: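 unitless ratio D/D0 relative to diffusion coefficient after Triton X-100 disruption of GUVs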
Protocol: as §1, §2, §3, §4

BimBH3-AL488: BimBH3 peptide labeled with Alexa Fluor 488 at C-terminal cysteine (FRET acceptor)
molecular association with EEE compared with S70E or WT (in words) [1]: associated with EEE-PB more potently than with S70E-PB or WT-PB

S70E: less potent phosphomimetic mutant S70E of TM-truncated BCL-2
Cytochrome c release, Average ([2]; BAX+BimBH3 + 2uM BCL-2 protein): 76.6421
Cytochrome c release, Average ([2]; BAX+BimBH3 + 4uM BCL-2 protein): 24.3731
Cytochrome c release, Average ([2]; BAX+BimBH3 + 6uM BCL-2 protein): 15.7119

WT: TM-truncated wild-type human BCL-2 (BCL-2-ΔTM, residues 1–217, C-terminal His6-tag)
susceptibility to trypsin proteolysis (in words) (trypsin): susceptible to proteolysis and rapidly degraded to fragments
Cytochrome c release, Average ([2]; BAX+BimBH3 + 2uM BCL-2 protein): 77.3682
Cytochrome c release, Average ([2]; BAX+BimBH3 + 4uM BCL-2 protein): 50.0022
Cytochrome c release, Average ([2]; BAX+BimBH3 + 6uM BCL-2 protein): 21.4104

B1: EEE-PB: EEE labeled with Pacific Blue (FRET donor) (conjugate)
chain: MAHAGRTGYDNREIVMKYIHYKLSQRGYEWDAGDVGAAPPGAAPAPGIFSSQPGHTPHPAASRDPVAREEPLQTPAAPGAAAGPALEPVPPVVHLTLRQAGDDFSRRYRRDFAEMSSQLHLTPFTARGRFATVVEELFRDGVNWGRIVAFFEFGGVMCVESVNREMSPLVDNIALWMTEYLNRHLHTWIQDNGGWDAFVELYGPSMRPLFDFSWLSL
modifications: Pacific Blue (maleimide) on the native cysteine 158; left off: His6, C-terminal, state not stated
FRAP pore-forming activity, average (BAX [3]; mean of trials): 0.001441
FRAP pore-forming activity (BAX [3]; trial1): 0.0008772
FRAP pore-forming activity (BAX [3]; trial2): 0.0007018
FRAP pore-forming activity (BAX [3]; trial3): 0.0003509
FRAP pore-forming activity (BAX [3]; trial4): 0.0008772
FRAP pore-forming activity (BAX [3]; trial5): 0.001228
FRAP pore-forming activity (BAX [3]; trial6): 0.0007018
FRAP pore-forming activity (BAX [3]; trial7): 0.001228
FRAP pore-forming activity (BAX [3]; trial8): 0.002456
FRAP pore-forming activity (BAX [3]; trial9): 0.002807
FRAP pore-forming activity (BAX [3]; trial10): 0.001579
FRAP pore-forming activity (BAX [3]; trial11): 0.002105
FRAP pore-forming activity (BAX [3]; trial12): 0.001404
FRAP pore-forming activity (BAX [3]; trial13): 0.001579
FRAP pore-forming activity (BAX [3]; trial14): 0.002281
pore-forming activity / effect on BAX-induced membrane pores on GUV (in words) (BAX [4]; 10- and 70-kDa F-dextran, BAX 1 µM, BimBH3 2 µM, BCL-2 1 µM, ABT-199 30 µM, room temperature, Fig. 2c): The ability of EEE to sequester BimBH3 is similar to that of EEE-PB
FRAP pore-forming activity, average (BAX [4]; 70 kDa F-dextran, mean of trials): 0.000389
FRAP pore-forming activity (BAX [4]; 70 kDa F-dextran, trial1): 0.00033
FRAP pore-forming activity (BAX [4]; 70 kDa F-dextran, trial2): 0.000165
FRAP pore-forming activity (BAX [4]; 70 kDa F-dextran, trial3): 0.000165
FRAP pore-forming activity (BAX [4]; 70 kDa F-dextran, trial4): 0.00033
FRAP pore-forming activity (BAX [4]; 70 kDa F-dextran, trial5): 0.00033
FRAP pore-forming activity (BAX [4]; 70 kDa F-dextran, trial6): 0.000165
FRAP pore-forming activity (BAX [4]; 70 kDa F-dextran, trial7): 0.00033
FRAP pore-forming activity (BAX [4]; 70 kDa F-dextran, trial8): 0.0006601
FRAP pore-forming activity (BAX [4]; 70 kDa F-dextran, trial9): 0.0008251
FRAP pore-forming activity (BAX [4]; 70 kDa F-dextran, trial10): 0.000495
FRAP pore-forming activity (BAX [4]; 70 kDa F-dextran, trial11): 0.000495
FRAP pore-forming activity (BAX [4]; 70 kDa F-dextran, trial12): 0.00033
FRAP pore-forming activity (BAX [4]; 70 kDa F-dextran, trial13): 0.00033
FRAP pore-forming activity (BAX [4]; 70 kDa F-dextran, trial14): 0.000495
